Target: the molecule itself
Assay: SEC

B1: Spa47 E267A (enzyme)
chain: MSYTKLLTQLSFPNRISGPILETSLSDVSIGEICNIQAGIESNEIVARAQVVGFHDEKTILSLIGNSRGLSRQTLIKPTAQFLHTQVGRGLLGAVVNPLGEVTDKFAVTDNSEILYRPVDNAPPLYSERAAIEKPFLTGIKVIDSLLTCGEGQRMGIFASAGCGKTFLMNMLIEHSGADIYVIGLIGERGREVTETVDYLKNSEKKSRCVLVYATSDYSSVDRCNAAYIATAIAEFFRTEGHKVALFIDSLTRYARALRDVALAAGASPARRGYPVSVFDSLPRLLERPGKLKAGGSITAFYTVLLEDDDFADPLAEEVRSILDGHIYLSRNLAQKGQFPAIDSLKSISRVFTQVVDEKHRIMAAAFRELLSEIEELRTIIDFGEYKPGENASQDKIYNKISVVESFLKQDYRLGFTYEQTMELIGETIR
  binding result: binds

B2: Spa47 E267R (enzyme)
chain: MSYTKLLTQLSFPNRISGPILETSLSDVSIGEICNIQAGIESNEIVARAQVVGFHDEKTILSLIGNSRGLSRQTLIKPTAQFLHTQVGRGLLGAVVNPLGEVTDKFAVTDNSEILYRPVDNAPPLYSERAAIEKPFLTGIKVIDSLLTCGEGQRMGIFASAGCGKTFLMNMLIEHSGADIYVIGLIGERGREVTETVDYLKNSEKKSRCVLVYATSDYSSVDRCNAAYIATAIAEFFRTEGHKVALFIDSLTRYARALRDVALAAGRSPARRGYPVSVFDSLPRLLERPGKLKAGGSITAFYTVLLEDDDFADPLAEEVRSILDGHIYLSRNLAQKGQFPAIDSLKSISRVFTQVVDEKHRIMAAAFRELLSEIEELRTIIDFGEYKPGENASQDKIYNKISVVESFLKQDYRLGFTYEQTMELIGETIR
  binding result: binds
